Results as given in patent US20220144966A1 (SORRENTO THERAPEUTICS, published 2022).
Positions count from the first letter of the chain named.

T1: recombinant mouse CD38/His-tag (Sino Biological, catalog #50191-M08H) (mouse, UniProt P56528 45-304)
T1 construct: Bought protein; also called murine CD38 protein; not shown: His-tag
T1 sequence: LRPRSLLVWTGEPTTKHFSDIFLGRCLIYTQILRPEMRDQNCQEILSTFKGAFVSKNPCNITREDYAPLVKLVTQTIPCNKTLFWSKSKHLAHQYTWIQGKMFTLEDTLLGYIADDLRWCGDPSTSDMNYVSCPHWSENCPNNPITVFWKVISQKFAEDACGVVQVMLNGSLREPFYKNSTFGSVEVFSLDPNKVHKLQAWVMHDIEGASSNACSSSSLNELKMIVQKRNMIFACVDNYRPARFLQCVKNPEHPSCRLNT

B1: parent antibody A2 (antibody, V domains shown)
VH: QVQLVESGGGLVKPGGSLRLSCAASGFTFSDDYMSWIRQAPGKGLEWVASVSNGRPTTYYADSVRGRFTISRDNAKNSLYLQMNSLRAEDTAVYYCAREDWGGEFTDWGRGTLVTVSS
VL: QAGLTQPPSASGTSGQRVTISCSGSSSNIGINFVYWYQHLPGTAPKLLIYKNNQRPSGVPDRFSGSKSGNSASLAISGLRSEDEADYYCAAWDDSLSGYVFGSGTKVTVL
notes: Only variable domains are tied to A2; also called A2-IgG1; anti-CD38-A2 parent antibody
B2: variant antibody 3H10m1 (antibody, V domains shown)
VH: B1 VH with D100G, G102S, R110Q
VL: B1 VL with I31F, N32H
B3: variant antibody 3G3 (antibody, V domains shown)
VH: B1 VH with D100A, G102S, R110Q
VL: B1 VL
B4: variant antibody 3E10 (antibody, V domains shown)
VH: B1 VH
VL: B1 VL with I31F, N32H
notes: it was captured by anti-human Fc in SPR

What was measured:
[1] = molecular target: T2, recombinant cynomolgus CD38/His-tag (Sino Biological, catalog #90050-C08H) (cynomolgus monkey, UniProt Q5VAN0 44-300); test: ELISA, His-tagged CD38 captured on Ni-NTA plate, antibody about 1 µg/mL
T2 construct: Bought protein; also called cynomolgus CD38 protein; not shown: His-tag

[2] = molecular target: T3, cynomolgus CD38 on cynomolgus monkey T cells (cynomolgus monkey, UniProt Q5VAN0 1-300); test: flow cytometry on cynomolgus peripheral blood lymphocytes co-stained with anti-CD3 FITC
T3 construct: Native CD38 on peripheral blood lymphocytes from cynomolgus monkey blood, co-stained with anti-CD3 FITC; also called cynomolgus T cells

[3] = molecular target: T1, recombinant mouse CD38/His-tag (Sino …); test: ELISA, His-tagged CD38 captured on Ni-NTA plate, HRP anti-human Fc, OD 450 nm
[4] = molecular target: human CD38 on cells (Raji, Ramos, RPMI 8226, human T cells) (human, UniProt P28907 1-300); test: flow cytometry on non-activated or activated human T cells, 10, 1 or 0.1 µg/mL

Row | Binder | binding result [1] | binding result [2] | binding result [3] | binding result [4]
1 | B1 | binds | binds | no binding (tested: about 1 µg/mL) | –
2 | B2 | – | binds | – | –
3 | B3 | – | binds | – | –
4 | B4 | – | – | – | binds
